Results reported in US20200317791A1 (Janssen / Centocor, published 2020).
Read-outs that look alike come from different tables or passages of the source.

T1: A24_A*24:02 (human, UniProt A*24:02)
T1 construct: on LABScreen bead; also called HLA-A*24:02 (LABScreen class I bead)
T1 heavy chain: not shown

T2: rhHLA-Cw6 stably expressed on K562 cells (K562-rhHLA-Cw6) (human, UniProt P10321 25-366)
T2 construct: also called K562-HLA-Cw6
T2 MHC heavy: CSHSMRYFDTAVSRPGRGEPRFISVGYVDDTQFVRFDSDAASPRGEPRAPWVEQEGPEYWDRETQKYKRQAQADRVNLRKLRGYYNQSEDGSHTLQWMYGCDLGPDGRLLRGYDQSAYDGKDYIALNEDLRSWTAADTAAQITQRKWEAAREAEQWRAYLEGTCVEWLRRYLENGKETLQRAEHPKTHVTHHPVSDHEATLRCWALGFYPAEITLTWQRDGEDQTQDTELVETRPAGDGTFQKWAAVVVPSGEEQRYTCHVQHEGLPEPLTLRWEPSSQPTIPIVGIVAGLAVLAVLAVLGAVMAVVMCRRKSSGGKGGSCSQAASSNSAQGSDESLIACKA


Key:
A24_A*24:02 [1] = target: T1, A24_A*24:02; test: LABScreen beads
[2] = target: T3, CW6W36 (rhHLA-Cw6/ADAMTSL5) (human); test: SPR Biacore 8K, captured mAb; Acceptable fit
T3 construct: also called CW6W36.002; rHLA-Cw6/ADAMTSL5
Description: (§1) To further characterize the ability of the antibodies to differentiate between class I MHC molecules.

CW6W35.001 = test: SPR Biacore 8K, captured mAb; Acceptable fit
Description: as §1

CW6W51.001 = test: SPR Biacore 8K, captured mAb; Acceptable fit
Description: as §1

CW6W53.001 = test: SPR Biacore 8K, captured mAb; Acceptable fit
Description: as §1

CW6W54.001 [3] = test: SPR Biacore 8K, captured mAb; Acceptable fit
Description: as §1

CW6W32 (rhHLA-Cw6/TRAT) [4] = target: T4, CW6W32 (rhHLA-Cw6/TRAT) (human); test: SPR Biacore 8K, captured mAb; Kinetic fit not valid
T4 construct: also called CW6W32.009; rHLA-Cw6/TRAT

[5] = target: T5, CW6W3.ECO.PP.002/.003 (rhHLA-Cw6/ARF) (human); test: SPR ProteOn XPR36, captured mAb; valid kinetic fit, range of two replicates
T5 construct: also called rhHLA-Cw6/ARFN; rHLA-Cw6/ARFN
Protocol: (§2) Anti-HLA-Cw6 mAbs were captured at ligand densities ranging from 100 to 200 response units. […] All analyses were conducted in PBST at 100 μL/min flow rate with association and dissociation times of 180 and 900 seconds, respectively. […] Analyte raw data was double referenced by subtraction of the blank surface response at “interspots” (to correct for refractive index changes and any non-specific interactions with the chip surface) and of the buffer blank response (to correct for any baseline drift resulting from mAb dissociation over time). Referenced data were globally fit to a 1:1 simple Langmuir binding model. Kinetic parameters were calculated for each mAb/antigen combination or interaction using Bio-Rad ProteOn Manager software (version 3.1.0.6) with parameter (kon, koff, Rmax) scope and type set to “Grouped” and “Fitted,” respectively.

[6] = target: T5, CW6W3.ECO.PP.002/.003 (rhHLA-Cw6/ARF); test: SPR ProteOn XPR36, captured mAb; valid kinetic fit, range of two replicates (upper end)
Protocol: as §2

[7] = target: T6, rhHLA-B7 stably expressed on K562 cells (K562-rhHLA-B7) (human, UniProt P01889 25-362); test: MSD cell binding
T6 construct: also called K562-rehHLA-B7

[8] = target: T2, rhHLA-Cw6 stably expressed on K562 …; test: MSD cell binding
Protocol: (§3) The blocking buffer was aspirated, 20 μl of prepared test antibodies were added to appropriate wells, and the plate was incubated further for 1 hour at RT. The plate was washed three times with 80 μl PBS, and then each well received 20 μl/well of a 1 μg/ml SulfoTag labeled secondary detection antibody solution. After a 1-hour incubation at RT, the plate was washed three times with 80 μl PBS, and 50 μl/well of a 1× MSD Read Buffer T (surfactant free) (MSD #R92TD-1) was added and the plate was read on an MSD Sector 600 Plate Reader.

[9] = target: T6, rhHLA-B7 stably expressed on K562 cells …; test: MSD cell binding; remark: listed apart in the source
Protocol: as §3

CW6W47.001 = test: SPR Biacore 8K, captured mAb; Acceptable fit
Description: as §1

CW6W56.ECO.PP.001 = test: SPR Biacore 8K, captured mAb; Acceptable fit
Description: as §1

[10] = target: T5, CW6W3.ECO.PP.002/.003 (rhHLA-Cw6/ARF); test: SPR ProteOn XPR36, captured mAb; valid kinetic fit;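 also: Anti-HLA-Cw6 mAbs captured at 100–200 RU, antigen flowed in PBST, 180 s association and 900 s dissociation, double-referenced sensorgrams globally fit to a 1:1 Langmuir model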
Protocol: as §2

CW6W32 (rhHLA-Cw6/TRAT) [11] = target: T4, CW6W32 (rhHLA-Cw6/TRAT); test: SPR ProteOn XPR36, captured mAb; valid kinetic fit;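 also: Anti-HLA-Cw6 mAbs captured at 100–200 RU, antigen flowed in PBST, 180 s association and 900 s dissociation, double-referenced sensorgrams globally fit to a 1:1 Langmuir model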
Protocol: as §2

[12] = target: T3, CW6W36 (rhHLA-Cw6/ADAMTSL5); test: SPR ProteOn XPR36, captured mAb; valid kinetic fit;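 also: Anti-HLA-Cw6 mAbs captured at 100–200 RU, antigen flowed in PBST, 180 s association and 900 s dissociation, double-referenced sensorgrams globally fit to a 1:1 Langmuir model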
Protocol: as §2

CW6W54.001 [13] = test: SPR Biacore 8K, captured mAb; Kinetic fit not valid
CW6W55.ECO.PP.002 [14] = test: as above
A24_A*24:02 [15] = target: T1, A24_A*24:02; test: LABScreen beads
CW6W55.ECO.PP.002 [16] = test: SPR Biacore 8K, captured mAb; Acceptable fit
Description: as §1

T6 sequence (P01889 25-362 limits assumed): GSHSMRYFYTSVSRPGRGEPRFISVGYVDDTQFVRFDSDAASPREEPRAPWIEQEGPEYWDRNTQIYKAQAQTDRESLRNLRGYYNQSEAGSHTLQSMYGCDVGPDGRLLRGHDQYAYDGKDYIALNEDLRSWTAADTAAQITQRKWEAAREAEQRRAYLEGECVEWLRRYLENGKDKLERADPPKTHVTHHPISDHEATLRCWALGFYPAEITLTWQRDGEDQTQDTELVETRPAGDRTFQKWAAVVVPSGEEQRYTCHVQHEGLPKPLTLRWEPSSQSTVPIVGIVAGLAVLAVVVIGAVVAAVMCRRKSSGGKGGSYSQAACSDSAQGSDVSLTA

Binder | Kd [2] [nM] | koff [2] [s⁻¹] | kon [2] [M⁻¹ s⁻¹] | Kd (CW6W35.001) [nM] | koff (CW6W35.001) [s⁻¹] | kon (CW6W35.001) [M⁻¹ s⁻¹] | Kd (CW6W51.001) [nM] | koff (CW6W51.001) [s⁻¹] | kon (CW6W51.001) [M⁻¹ s⁻¹] | Kd (CW6W53.001) [nM] | koff (CW6W53.001) [s⁻¹] | kon (CW6W53.001) [M⁻¹ s⁻¹] | Kd (CW6W32 (rhHLA-Cw6/TRAT) [4]) [nM] | koff (CW6W32 (rhHLA-Cw6/TRAT) [4]) [s⁻¹] | kon (CW6W32 (rhHLA-Cw6/TRAT) [4]) [M⁻¹ s⁻¹] | Kd (CW6W56.ECO.PP.001) [nM] | koff (CW6W56.ECO.PP.001) [s⁻¹] | kon (CW6W56.ECO.PP.001) [M⁻¹ s⁻¹] | Kd (CW6W54.001 [13]) [nM] | koff (CW6W54.001 [13]) [s⁻¹] | also measured
CW6B175 (antibody, V domains shown, also called CW6B175.001; CW6M175 (DNA ID)) VH: EVQLVESGGGLVQPGGSLRLSCAASGFTFTNYWMTWVRQAPGKGLEWVANIKQSGSEKYYVDSVKGRFTISRDNAKNSLYLQMNSLRAEDTAVYYCARTLYEWELEPFDYWGQGTLVTVSS VL: SYVLTQPPSVSVAPGQTARITCGGNRIGSKSVHWYQQKPGQAPVLVVFDDSDRPSGIPERFSGSNSGITATLTISRVEAGDEADYYCQVWDSSNDHVVFGGGTKLTVL | 1.87 | 0.0163 | 8.73e+06 | 0.12 | 0.000126 | 1.05e+06 | 0.157 | 0.000285 | 1.82e+06 | 0.327 | 0.00056 | 1.72e+06 | 0.663 | 0.284 | 4.28e+08 |  |  |  |  |  | binding result (A24_A*24:02 [1]): no binding (tested: 10 µg/ml); Kd (CW6W54.001 [3]): 0.128 nM; koff (CW6W54.001 [3]): 0.000842 s⁻¹; kon (CW6W54.001 [3]): 6.6e+06 M⁻¹ s⁻¹; Kd [5]: 0.0285 nM; koff [5]: 0.000314 s⁻¹; kon [5]: 1.05e+07 M⁻¹ s⁻¹; Kd [6]: 0.0346 nM; koff [6]: 0.000363 s⁻¹; kon [6]: 1.1e+07 M⁻¹ s⁻¹
CW6B233 (antibody, V domains shown, also called CW6B233.001; CW6M233 (DNA ID)) VH: QVQLQESGPGLVKPSETLSLTCTVSGNSIRSYYWSWIRQPAGKGLEWIGRIYISGNTNYNPSLKSRVTMSIDTSKNQFSLKLSSVTAADTAVYYCARLSGIDAFDIWGQGTMVTVSS VL: DIQMTQSPSSLSASVGDRVTITCQASQDITNYLNWYQQKPGKAPKLLIYDASNLETGVPSRFSGSGSGTDFTFTISSLQPEDFATYYCQQYDNLPITFGQGTRLEIK | 3.82 | 0.00433 | 1.14e+06 | 3.59 | 0.000758 | 211000 | 1.18 | 0.000514 | 437000 | 2.09 | 0.00073 | 350000 | 3.73 | 0.00203 | 544000 | 1.26 | 0.00107 | 849000 | 0.798 | 0.000484 | binding result [7]: no binding; HLA-Cw6 Selective (K562-rhHLA-Cw6 specific/K562-rhHLA-B7 specific) [8]: 44 ratio; HLA-Cw6 Specific (K562-rhHLA-Cw6/K562 Parent binding signal) [8]: 36 ratio; HLA-B7 Specific (K562-rhHLA-B7/K562 Parent binding signal) [9]: 0.8 ratio; Kd (CW6W47.001): 9.63 nM; koff (CW6W47.001): 0.00801 s⁻¹; kon (CW6W47.001): 832000 M⁻¹ s⁻¹; Kd [10]: 0.29 nM; koff [10]: 0.000293 s⁻¹; kon [10]: 1.02e+06 M⁻¹ s⁻¹; Kd (CW6W32 (rhHLA-Cw6/TRAT) [11]): 1.55 nM; koff (CW6W32 (rhHLA-Cw6/TRAT) [11]): 0.00234 s⁻¹; kon (CW6W32 (rhHLA-Cw6/TRAT) [11]): 1.51e+06 M⁻¹ s⁻¹; Kd [12]: 1 nM; koff [12]: 0.00355 s⁻¹; kon [12]: 3.56e+06 M⁻¹ s⁻¹; kon (CW6W54.001 [13]): 607000 M⁻¹ s⁻¹; Kd (CW6W55.ECO.PP.002 [14]): 7.3 nM; koff (CW6W55.ECO.PP.002 [14]): 1.22 s⁻¹; kon (CW6W55.ECO.PP.002 [14]): 1.67e+08 M⁻¹ s⁻¹
CW6B230 (antibody, V domains shown, also called CW6B230.001; CW6M230 (DNA ID)) VH: QVQLQESGPGLVKPSETLSLTCTVSGNSISNYYWSWIRQPAGKGLEWIGRIYITGNTNYNPSLKSRVTMSLDTSKNQFSLKLSSVTAADTAVYYCARLSGIDAFDIWGQGTMVTVSS VL: DIQMTQSPSTLSASVGDRVTFTCQASQDITKYLNWYQQKPGKAPKLLIYDASNLETGVPSRFSGSGSGTDFTFTISSLQPEDFATYYCQQYDDLPITFGQGTRLEIK |  |  |  |  |  |  |  |  |  |  |  |  |  |  |  | 2.07 | 0.00295 | 1.42e+06 | 1.4 | 0.000655 | binding result (A24_A*24:02 [15]): no binding (tested: 10 µg/ml); Kd (CW6W55.ECO.PP.002 [16]): 8.9 nM; koff (CW6W55.ECO.PP.002 [16]): 0.00655 s⁻¹; kon (CW6W55.ECO.PP.002 [16]): 737000 M⁻¹ s⁻¹; kon (CW6W54.001 [13]): 467000 M⁻¹ s⁻¹
